Measured values as given in patent publication US20220340682A1 (Sanofi, published 2022).
Positions count from the first letter of the chain named. Values joined by “and” are separate entries in the source; they are usually repeats but may differ in a detail not shown here. Equal entries are not always repeated. Blank lines part the entries; values can stand above or below the binder they belong to.

Key:
[1] = molecular target: T1, cCEACAM5, M. fascicularis CEACAM5 ECD (35-688) (Macaca fascicularis); experiment: ELISA, murine hybridoma mAb
T1 construct: ECD followed by a 24 amino acid extension containing a His-Tag; also called cynomolgus CEACAM5; monkey CEACAM5
T1 chain: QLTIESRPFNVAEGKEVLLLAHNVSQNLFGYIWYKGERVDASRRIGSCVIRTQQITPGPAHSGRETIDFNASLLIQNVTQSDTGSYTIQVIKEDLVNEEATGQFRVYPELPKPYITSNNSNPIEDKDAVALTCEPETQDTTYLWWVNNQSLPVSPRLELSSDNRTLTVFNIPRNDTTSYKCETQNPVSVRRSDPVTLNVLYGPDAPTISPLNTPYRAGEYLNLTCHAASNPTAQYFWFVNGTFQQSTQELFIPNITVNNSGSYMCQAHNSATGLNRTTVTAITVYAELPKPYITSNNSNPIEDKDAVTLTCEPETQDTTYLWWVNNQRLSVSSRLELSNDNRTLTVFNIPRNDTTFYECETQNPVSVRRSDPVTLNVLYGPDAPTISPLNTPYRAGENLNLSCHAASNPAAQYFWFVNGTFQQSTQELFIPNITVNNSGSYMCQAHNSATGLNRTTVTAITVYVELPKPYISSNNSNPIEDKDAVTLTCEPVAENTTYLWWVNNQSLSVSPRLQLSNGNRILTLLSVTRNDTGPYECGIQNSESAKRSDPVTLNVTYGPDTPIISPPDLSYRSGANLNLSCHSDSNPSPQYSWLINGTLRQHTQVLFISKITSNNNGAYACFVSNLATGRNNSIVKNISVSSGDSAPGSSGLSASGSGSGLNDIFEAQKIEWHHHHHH

[2] = molecular target: T2, human CEACAM5 expressed on the surface of tumor cells (human, UniProt P06731 35-685); experiment: flow cytometry on CR-IGR-034P primary colon tumor cells
T2 construct: Endogenous CEACAM5 of human tumor cells; also called hCEACAM5 on MKN45 cells; CEACAM5 on CR-IGR-034P primary colon tumor cells
T2 sequence: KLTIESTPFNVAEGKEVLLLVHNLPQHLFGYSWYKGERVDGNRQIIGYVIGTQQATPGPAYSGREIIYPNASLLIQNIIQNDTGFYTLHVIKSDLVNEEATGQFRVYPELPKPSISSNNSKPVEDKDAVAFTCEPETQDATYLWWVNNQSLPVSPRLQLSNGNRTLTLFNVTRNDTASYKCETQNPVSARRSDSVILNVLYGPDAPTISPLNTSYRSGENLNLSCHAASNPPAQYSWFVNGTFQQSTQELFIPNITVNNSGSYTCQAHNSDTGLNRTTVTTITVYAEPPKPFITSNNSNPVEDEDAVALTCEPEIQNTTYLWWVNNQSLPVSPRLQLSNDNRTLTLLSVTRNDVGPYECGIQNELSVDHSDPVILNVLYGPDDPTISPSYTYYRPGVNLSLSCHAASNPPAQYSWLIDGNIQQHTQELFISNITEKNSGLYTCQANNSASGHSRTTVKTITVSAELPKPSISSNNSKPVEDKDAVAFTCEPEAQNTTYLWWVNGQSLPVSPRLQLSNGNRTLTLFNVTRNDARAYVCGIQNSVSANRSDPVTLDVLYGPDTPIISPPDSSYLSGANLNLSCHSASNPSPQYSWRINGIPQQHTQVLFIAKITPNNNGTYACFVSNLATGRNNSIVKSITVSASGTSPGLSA
Experimental: Advanced human primary colon tumor CR-IGR-034P (Julien et al., Clin Cancer Res Oct. 1, 2012 18:5314-5328) was obtained from Patient-derived xenograft in mice. Tumor CR-IGR-034P was enzymatically dissociated using collagenase Type IV (Invitrogen; #17104-019) and deoxyribonuclease I (Invitrogen; #18047-019) for 1 h at […], Cell viability was estimated by Viacount application using Guava® easyCyte™ 8HT Flow Cytometry System. […] 100 μL/well of goat anti-mouse IgG conjugated with Alexa647 (Invitrogen; # A2135) or goat anti-human IgG conjugated with Alexa488 (Invitrogen; # A11013) was added for 45 min at 4° C. and washed three times with PBS 1% BSA. The antibody binding was evaluated after centrifugation and resuspension of cells by adding 200 pliwell PBS 1% BSA and read using Guava® easyCyte™ 8HT Flow Cytometry System. Apparent KD and EC50 values were estimated using BIOST@T-BINDING and BIOST@T-SPEED softwares, respectively.

[3] = molecular target: T3, hCEACAM5, human CEACAM5 ECD (35-685) (human, UniProt P06731 35-685); experiment: ELISA, murine hybridoma mAb
T3 construct: produced in HEK293; also called human CEACAM5 protein; human CEACAM5 extracellular domain
T3 sequence: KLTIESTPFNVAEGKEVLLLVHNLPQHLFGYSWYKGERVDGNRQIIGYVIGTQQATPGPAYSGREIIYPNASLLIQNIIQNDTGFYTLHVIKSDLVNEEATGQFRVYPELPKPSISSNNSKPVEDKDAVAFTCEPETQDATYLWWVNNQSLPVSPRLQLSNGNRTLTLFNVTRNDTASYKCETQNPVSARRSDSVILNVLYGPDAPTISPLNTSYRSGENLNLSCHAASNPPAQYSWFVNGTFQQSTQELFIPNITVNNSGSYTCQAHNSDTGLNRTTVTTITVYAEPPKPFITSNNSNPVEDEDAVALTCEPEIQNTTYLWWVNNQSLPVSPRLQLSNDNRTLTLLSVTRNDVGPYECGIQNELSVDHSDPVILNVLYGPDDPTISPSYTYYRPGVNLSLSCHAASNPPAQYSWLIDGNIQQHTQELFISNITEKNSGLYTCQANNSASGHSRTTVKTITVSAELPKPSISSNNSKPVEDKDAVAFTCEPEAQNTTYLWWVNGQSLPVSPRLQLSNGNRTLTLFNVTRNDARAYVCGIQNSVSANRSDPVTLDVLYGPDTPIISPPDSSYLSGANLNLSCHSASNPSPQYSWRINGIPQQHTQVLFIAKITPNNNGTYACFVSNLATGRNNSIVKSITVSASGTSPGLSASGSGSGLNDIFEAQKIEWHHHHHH

[4] = molecular target: T3, hCEACAM5, human CEACAM5 ECD (35-685); experiment: ELISA, chimeric mAb
[5] = molecular target: T1, cCEACAM5, M. fascicularis CEACAM5 ECD …; experiment: ELISA, chimeric mAb

B2: antibody MAb3 (antibody, IgG1, V domains shown)
VH: EVKLVESGGGLVKPGGSLTLPCAASGFTFSRYAMSWVRQTPEKRLEWVASISSGGDTYYPDSVKGRFTVSRDNARNILFLQMSSLRSEDTGMYYCARVNYYDSSFLDWWGQGTTLTVSS
VL: DIVMTQSQRFMSTLEGDRVSVTCKASQNVGTNVAWYQQKPGQSPKALIYSASYRYSGVPDRFTGSGSGTDFTLTISNVQSEDLAEYFCQQYNNYPLYTFGGGTKLEIK
notes: Murine monoclonal from hybridoma, IgG1, kappa
EC50 [3]: 360 pM
EC50 [1]: 3720 pM
EC50 [2]: 2800 pM

B4: antibody MAb5 (antibody, IgG1, V domains shown)
VH: ELQLVESGGVLVKPGGSLKLSCAASGFAFSSYDMSWVRQTPEKRLEWVTYINSGGGITYYPDTVKGRFTISRDNARNTLYLQMSSLKSEDTAIYYCTAHYFGSSGPFAYWGQGTLVTVSA
VL: DIQMTQSPASLSASVGETVTITCRASENIYSYLAWYQQKQGKSPQLLVYNAKTLTEGVPSRFSGSGSGTQFSLKINSLQPEDFGSYYCQHHYGTPFTFGSGTKLEIK
notes: as for B2
EC50 [3]: 400 pM
EC50 [1]: 450 pM
EC50 [2]: 1400 pM

The next lines start with the values.

EC50 [1]: 1180 pM
EC50 [2]: 1000 pM
B1: antibody MAb1 (antibody, IgG1, V domains shown)
VH: EVMLVESGGGLVKPGGSLKLSCAASGFTFSSYAMSWVRQTPEKRLEWVATISSGGSYIYYLDSVKGRFTISRDNAKNTLYLQMSSLRSEDTAMYYCARPAYYGNPAMDYWGQGTSVTVSS
VL: B2 VL with V3L, R9K, L14S, E15V, A46P, N93S

EC50 [3]: 80 pM
EC50 [1]: 50 pM
EC50 [2]: 200 pM
B3: antibody MAb4 (antibody, IgG1, V domains shown)
VH: EVQLVESGGGLVKPGGSLKLSCAASGFTFSSYDMSWVRQTPEKRLEWVAFISSYGGRTYYADTVKGRFTISRDNAKNTLYLQMSSLKSEDTAMFYCAAHYFGTSGPFAYWGQGTLVTVSA
VL: B4 VL with L33F, T53I, T55A, S85T, T94I, I106L
notes: as for B2

EC50 [4]: 160 pM and 140 pM
EC50 [5]: 130 pM and 170 pM
B5: chMAb2 (antibody, human IgG1, kappa, V domains shown)
VH: EVQLQESGGVLVKPGGSLKLSCAASGFVFSSYDMSWVRQTPEKRLEWVAYISSGGGITYFPDTVQGRFTVSRDNAKNTLYLQMNSLKSEDTAIYYCAAHYFGSSGPFAYWGQGTLVTVSA
VL: DIQMTQSPASLSASVGETVTITCRASENIFSYLAWYQQKQGKSPQLLVYNTKTLAEGVPSRFSGSGSGTQFSLKINSLQPEDFGSYYCQHHYGTPFTFGSGTKLEIKR
notes: Chimeric, human IgG1, Ck isotype; also called MAb2-IgG1; chimeric MAb2
